# Test system: Escherichia coli TOP10
# Test: shrunken log2 fold change of peptide-encoding DNA abundance (4.5 h post-induction vs induction); higher = less antimicrobial activity (less host growth inhibition)
# Details: time post-induction: 4.5 h; library: site-saturation at positions 5, 18, 19, 20
# 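Note: peptides expressed intracellularly from a pBAD plasmid library in pooled LB shake-flask culture, induced with 0.3% L-arabinose, DNA abundance read by NGS, three biological replicates, DESeq2 with apeglm shrinkage.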
row,Sequence,shrunken log2 fold change
1,RRIRPRPPRLPRPRPRPSTFPRP,0.147
2,RRIRKRPPRLPRPRPRPHGHPRP,-0.248
3,RRIRWRPPRLPRPRPRPYMMPRP,-0.842
4,RRIRMRPPRLPRPRPRPPTWPRP,0.627
5,RRIRPRPPRLPRPRPRPSLWPRP,0.471
6,RRIRKRPPRLPRPRPRPCGGPRP,0.225
7,RRIRERPPRLPRPRPRPNVCPRP,-0.382
8,RRIRVRPPRLPRPRPRPQKIPRP,0.0538
9,RRIRRRPPRLPRPRPRPEYPPRP,-0.137
10,RRIRDRPPRLPRPRPRPTTRPRP,0.542
11,RRIRLRPPRLPRPRPRPAEWPRP,0.0143
12,RRIRYRPPRLPRPRPRPIIRPRP,-0.2
13,RRIRSRPPRLPRPRPRPNQEPRP,0.0169
14,RRIRERPPRLPRPRPRPREPPRP,0.392
15,RRIRRRPPRLPRPRPRPWAMPRP,-0.136
16,RRIRSRPPRLPRPRPRPQVIPRP,0.00733
17,RRIRFRPPRLPRPRPRPKRQPRP,0.401
18,RRIRQRPPRLPRPRPRPPTVPRP,-0.225
19,RRIRSRPPRLPRPRPRPTGCPRP,0.159
20,RRIRKRPPRLPRPRPRPEKPPRP,0.0899
21,RRIRWRPPRLPRPRPRPLVDPRP,0.0816
22,RRIRSRPPRLPRPRPRPDLGPRP,0.0168
23,RRIRSRPPRLPRPRPRPSTNPRP,-0.546
24,RRIRCRPPRLPRPRPRPRQIPRP,0.192
25,RRIRQRPPRLPRPRPRPPTQPRP,0.0976

row,Sequence,shrunken log2 fold change
1,RRIRNRPPRLPRPRPRPWGVPRP,0.112
2,RRIRWRPPRLPRPRPRPPPPPRP,0.958
3,RRIRVRPPRLPRPRPRPRATPRP,0.114
4,RRIRARPPRLPRPRPRPRQVPRP,0.2
5,RRIRWRPPRLPRPRPRPPVMPRP,0.00935
6,RRIRYRPPRLPRPRPRPFKTPRP,-0.398
7,RRIRPRPPRLPRPRPRPCGTPRP,0.155
8,RRIRARPPRLPRPRPRPCLPPRP,0.0185
9,RRIRLRPPRLPRPRPRPSVGPRP,0.101
10,RRIRYRPPRLPRPRPRPEVHPRP,-0.187
11,RRIRMRPPRLPRPRPRPQQGPRP,-0.121
12,RRIRFRPPRLPRPRPRPEHTPRP,-0.213
13,RRIRERPPRLPRPRPRPAGAPRP,0.464
14,RRIRYRPPRLPRPRPRPCYYPRP,-1.03
15,RRIRNRPPRLPRPRPRPVQIPRP,0.00489
16,RRIRLRPPRLPRPRPRPDIIPRP,-0.173
17,RRIRLRPPRLPRPRPRPWYYPRP,-0.266
18,RRIRFRPPRLPRPRPRPQYNPRP,-1.05
19,RRIRGRPPRLPRPRPRPIEEPRP,0.235
20,RRIRKRPPRLPRPRPRPTDEPRP,0.819
21,RRIRDRPPRLPRPRPRPLKVPRP,-0.0261
22,RRIRGRPPRLPRPRPRPLDHPRP,0.178
23,RRIRNRPPRLPRPRPRPYWWPRP,0.0224
24,RRIRYRPPRLPRPRPRPETDPRP,-0.021
25,RRIRDRPPRLPRPRPRPNPMPRP,-0.0935

row,Sequence,shrunken log2 fold change
1,RRIRQRPPRLPRPRPRPWAGPRP,0.0868
2,RRIRSRPPRLPRPRPRPDSQPRP,-0.267
3,RRIRTRPPRLPRPRPRPNAIPRP,-0.797
4,RRIRLRPPRLPRPRPRPWFGPRP,-0.149
5,RRIRNRPPRLPRPRPRPNFKPRP,-0.0826
6,RRIRDRPPRLPRPRPRPAESPRP,-0.0371
7,RRIRLRPPRLPRPRPRPSIHPRP,-0.619
8,RRIRSRPPRLPRPRPRPFVEPRP,-0.123
9,RRIRWRPPRLPRPRPRPMFTPRP,-0.0283
10,RRIRWRPPRLPRPRPRPPRIPRP,0.245
11,RRIRTRPPRLPRPRPRPVFCPRP,-0.139
12,RRIRKRPPRLPRPRPRPDTSPRP,0.0236
13,RRIRQRPPRLPRPRPRPQEQPRP,-0.000777
14,RRIRMRPPRLPRPRPRPIIDPRP,-0.399
15,RRIRYRPPRLPRPRPRPMFEPRP,-0.315
16,RRIRWRPPRLPRPRPRPPTVPRP,0.144
17,RRIRNRPPRLPRPRPRPYQWPRP,-0.098
18,RRIRYRPPRLPRPRPRPCFRPRP,-0.266
19,RRIRFRPPRLPRPRPRPVRMPRP,0.0345
20,RRIRSRPPRLPRPRPRPKNFPRP,-0.053
21,RRIRERPPRLPRPRPRPNTSPRP,0.37
22,RRIRQRPPRLPRPRPRPYRKPRP,-0.0156
23,RRIRPRPPRLPRPRPRPRYVPRP,-0.24
24,RRIRQRPPRLPRPRPRPAAFPRP,0.39
25,RRIRLRPPRLPRPRPRPANTPRP,-0.124

row,Sequence,shrunken log2 fold change
1,RRIRRRPPRLPRPRPRPHVMPRP,1.55
2,RRIRSRPPRLPRPRPRPLMNPRP,-0.204
3,RRIRCRPPRLPRPRPRPLYFPRP,-0.836
4,RRIRQRPPRLPRPRPRPTDPPRP,0.107
5,RRIRYRPPRLPRPRPRPLIMPRP,-0.0566
6,RRIRQRPPRLPRPRPRPNTNPRP,-0.47
7,RRIRQRPPRLPRPRPRPVDVPRP,-0.208
8,RRIRVRPPRLPRPRPRPTCMPRP,-0.125
9,RRIRARPPRLPRPRPRPVRCPRP,0.966
10,RRIRFRPPRLPRPRPRPNRTPRP,-0.0619
11,RRIRSRPPRLPRPRPRPEHMPRP,-0.391
12,RRIRFRPPRLPRPRPRPMQDPRP,-0.0947
13,RRIRTRPPRLPRPRPRPEDRPRP,0.0062
14,RRIRTRPPRLPRPRPRPSAMPRP,-0.0978
15,RRIRARPPRLPRPRPRPKAFPRP,0.269
16,RRIRDRPPRLPRPRPRPPLMPRP,0.325
17,RRIRPRPPRLPRPRPRPYLMPRP,-0.58
18,RRIRMRPPRLPRPRPRPHWMPRP,-0.137
19,RRIRARPPRLPRPRPRPKMAPRP,0.291
20,RRIRCRPPRLPRPRPRPMDMPRP,0.00534
21,RRIRIRPPRLPRPRPRPCLSPRP,-0.0164
22,RRIRGRPPRLPRPRPRPWVAPRP,-0.026
23,RRIRKRPPRLPRPRPRPVKKPRP,0.505
24,RRIRERPPRLPRPRPRPVNFPRP,-0.0265
25,RRIRKRPPRLPRPRPRPTMWPRP,0.643

row,Sequence,shrunken log2 fold change
1,RRIRERPPRLPRPRPRPTPRPRP,0.669
2,RRIRLRPPRLPRPRPRPYDRPRP,-0.0202
3,RRIRGRPPRLPRPRPRPGRVPRP,0.554
4,RRIRMRPPRLPRPRPRPAHVPRP,0.176
5,RRIRVRPPRLPRPRPRPRVKPRP,-0.221
6,RRIRPRPPRLPRPRPRPRHMPRP,0.116
7,RRIRYRPPRLPRPRPRPTSEPRP,-0.0408
8,RRIRIRPPRLPRPRPRPIAMPRP,-0.216
9,RRIRPRPPRLPRPRPRPRVGPRP,0.543
10,RRIRDRPPRLPRPRPRPKRVPRP,-0.0521
11,RRIRTRPPRLPRPRPRPSKRPRP,-0.325
12,RRIRERPPRLPRPRPRPAGGPRP,0.2
13,RRIRWRPPRLPRPRPRPNTHPRP,-0.231
14,RRIRIRPPRLPRPRPRPSDWPRP,-0.0413
15,RRIRERPPRLPRPRPRPKYGPRP,-0.567
16,RRIRERPPRLPRPRPRPDSKPRP,-0.312
17,RRIRRRPPRLPRPRPRPLTPPRP,0.489
18,RRIRIRPPRLPRPRPRPWDSPRP,-0.0632
19,RRIRWRPPRLPRPRPRPIPYPRP,-0.031
20,RRIRTRPPRLPRPRPRPHCCPRP,0.142
21,RRIRSRPPRLPRPRPRPACYPRP,-0.0386
22,RRIRGRPPRLPRPRPRPFDVPRP,0.147
23,RRIRARPPRLPRPRPRPMMEPRP,0.0919
24,RRIRDRPPRLPRPRPRPLSMPRP,-0.283
25,RRIRKRPPRLPRPRPRPCCDPRP,0.217

row,Sequence,shrunken log2 fold change
1,RRIRWRPPRLPRPRPRPGFWPRP,0.494
2,RRIRTRPPRLPRPRPRPKIRPRP,0.0372
3,RRIRIRPPRLPRPRPRPSQHPRP,-0.71
4,RRIRPRPPRLPRPRPRPFSGPRP,-0.478
5,RRIRIRPPRLPRPRPRPMRKPRP,0.0125
6,RRIRKRPPRLPRPRPRPNKTPRP,-0.227
7,RRIRLRPPRLPRPRPRPHGNPRP,-0.186
8,RRIRWRPPRLPRPRPRPIIIPRP,0.117
9,RRIRYRPPRLPRPRPRPEYNPRP,-0.15
10,RRIRLRPPRLPRPRPRPYEEPRP,-0.274
11,RRIRIRPPRLPRPRPRPDSGPRP,0.00524
12,RRIRARPPRLPRPRPRPIELPRP,0.00186
13,RRIRGRPPRLPRPRPRPVHHPRP,-0.0799
14,RRIRLRPPRLPRPRPRPYPEPRP,-0.201
15,RRIRFRPPRLPRPRPRPPRDPRP,1
16,RRIRRRPPRLPRPRPRPRCLPRP,0.219
17,RRIRKRPPRLPRPRPRPSMSPRP,0.14
18,RRIRKRPPRLPRPRPRPQSWPRP,0.451
19,RRIRWRPPRLPRPRPRPSCYPRP,-0.122
20,RRIRARPPRLPRPRPRPYKQPRP,-0.295
21,RRIRCRPPRLPRPRPRPAYEPRP,-0.28
22,RRIRHRPPRLPRPRPRPFNNPRP,-0.159
23,RRIRVRPPRLPRPRPRPGFHPRP,-0.184
24,RRIRMRPPRLPRPRPRPVNSPRP,0.00706
25,RRIRSRPPRLPRPRPRPTNYPRP,-0.44
